Results from the DeepSol protein solubility set.

assay: soluble on expression in E. coli; label from the status in PepcDB or PDB records

Sequence	soluble on expression in E. coli
VKNPSLICAPVMADSIDKMVIETSKAHELGADLVEIRLDWLKDFNPLEDLKTIIKKSPLPTLFTYRPKWEGGQYEGDENERRDVLRLAMELGADYIDVELQVASEFIKSIDGKKPGKFKVIVSSHNYQNTPSVEDLDGLVARIQQTGADIVKIATTAVDIADVARMFHITSKAQVPTIGLVMGERGLMSRILCSKFGGYLTFGTLDSSKVSAPGQPTIKDLLDLYNFRRIGPDTKVYGIIGKPVSHSKSPIVHNQAFKSVDFNGVYVHLLVDNLVSFLQAYSSSDFAGFSCTIPHKEAALQCCDEVDPLAKSIGAVNTILRRKSDGKLLGYNTDCIGSISAIEDGLRSSGDPSSVPSSSSPLASKTVVVIGAGGAGKALAYGAKEKGAKVVIANRTYERALELAEAIGGKALSLTDLDNYHPEDGMVLANTTSMGMQPNVEETPISKDALKHYALVFDAVYTPRITRLLREAEESGAITVSGSEMFVRQAYEQFEIFTGLPAPKELYWQIMSKYGSRENLYFQ	soluble
MAHHHHHHMAFNQRFDRGAQPSYAAVQLPPGWQMAYSVEGEVYYIDHNTRTTHWKIPQEVLNEMYHQGQTYRPSRSRRGIDRSKMKTKMCMNIQNGGKCTWGNACAFAHSSEELAAVPHNGGGQRMRMDPGAHQGNDNGLDNNHLQQ	soluble
FEQEGRDVALDYRWMPYKRISTNLKKALIASEDARFAGHGGFDWGGIQNAIRRNRNSGKVKAGGSTISQQLAKNLFLNESRSYIRKGEEAAITAMMEAVTDKDRIFELYLNSIEWHYGVFGAEAASRYFYQIPAAKLTKQQAAKLTARVPAPLYYADHPKSKRLRNKTNIVLKRMGSAELPESDTD	not soluble
MEQQIQMDEQENDESQGNDDQQNMSMSSSELHTMQDDHPGILLKTNTRMSITVKKLHVCGEWKWLQGGEDTCGICRMEFESACNMCKFPGDDCPLVLGICRHAFHRHCIDKWIAAPTNQPRAQCPLCRQDWTIVE	not soluble
VQLQQSGPVLVKPGGSVKMSCKASEYTLTSYLFQWVKQKSGQGLEWIGYIYPYNGGTRYNEKFRGKATLTSDKSSNTAYLELSSLTSEDSAVYYCARSSMSDPGANWGPGTLVTVSSASTKGPSVFPLAPSSKSTSGGTAALGCLVKDYFPEPVTVSWNSGALTSGVHTFPAVLQSSGLYSLSSVVTVPSSSLGTQTYICNVNHKPSNTKVDKKVEP	soluble
GAATMMRLARAMRPRPDGLPAQADDLRLHRLVLNDVGPRLNVEALQRIAGNVAAQDSYPTFEAAVAAMRQISTTFGPHTDAQWDELARHIYVRQGGGWVRHFDPALAVPLGAQVAQAFEAGERILWQAYDSLDCPVLIVRGQDSDLLSAATAAEMLGRNPRARLHEVPGVGHAPTLMTPEQIEPIARFLQE	not soluble
MRGSHHHHHHGSAERMLATIMFTDIVGSTQHAAALGDDRWRDLLDNHDTIVCHEIQRFGGREVNTAGDGFVATFTSPSAAIACADDIVDAVAALGIEVRIGIHAGEVEVRDASHGTDVAGVAVHIGARVCALAGPSEVLVSSTVRDIVAGSRHRFAERGEQELKGVPGRWRLCVLMRDDATRTR	soluble
NNDSWKPWSLPLSGKIIYLDPGHGGPDGGAVGGKLLEKDVTLEVAFRVRDYLQEQGALVIMTRESDTDLAPEGTKGYSRRKAEDLRQRVKLINHSEAELYISIHLNAIPSQKWSGAQSFYYGKYAENEKVAKYIQDELRRNLENTTRKAKRIHGIYLMQNVTKPGALIEVGFLSNPSEATLLGKPKYQDKVASSIYKGILRYFTEKGDPPE	not soluble
MGHHHHHHSHMANSAGSMANSAGSPGSLFRFAVPPALGSNLTDNVMITVDIIPSGWNSADGKSDKTKSAPSRDPERLQKIKESLLLEDSEEEEGDLCRICQMAAASSSNLLIEPCKCTGSLQYVHQDCMKKWLQAKINSGSSLEAVTTCELCKEKLELNLEDFDIHELHRAHANEQAEYEFISSGLYLVVLLHLCEQSFSDMMGNTNEPSTRVRFINLARTLQAHMEDLETSEDDSEEDGDHNRTFDIA	soluble
MGSDKIHHHHHHMSRTADSLPSTRQRRKEARPQELLDAALDLFVEKGFAATRSEEVAARAGVSKGTLYLYYPSKEELLKAVIRENISQEIAEGEDIVRGFDGPTAELLAHLMAEWWRRIGETRASGICKLIISEVRNFPDIAQFYLDEVVLPAERMIGGVVQRGIDRGEFRPVAVDDVVHALMAPMLFLMLHKHSMGACPNLDRRLDAPRVVAMQVDLVLNGLVPRTAPRGGPRKAKA	not soluble
MGRSSRKDEILQAALACFSEHGVDATTIEMIRDRSGASIGSLYHHFGNKERIHGELYLAGIGQYAALLEAGFARARSAEETVRLLVTSYIDWVVANPDWARFILHSRGRVEAGELGERLRADNQAHFARIHAALAGYRAEGLFREMPDDCFASVVIGPAHDLARQWLAGRTRVALADCRELLAQVAWDSVRAA	not soluble
MAVKEATSETKKRSGYEIITLTSWLLQQEQKGIIDAELTIVLSSISMACKQIASLVQRANISNLTGTQGAVNIQGEDQKKLDVISNEVFSNCLRSSGRTGIIASEEEDVPVAVEESYSGNYIVVFDPLDGSSNLDAAVSTGSIFGIYSPNDECLPDFGDDSDDNTLGTEEQRCIVNVCQPGSNLLAAGYCMYSSSVIFVLTIGKGVFVFTLDPLYGEFVLTQENLQIPKSGKIYSFNEGNYKLWDENLKKYIDDLKEPGPSGKPYSARYIGSLVGDFHRTLLYGGIYGYPRDKKSKNGKLRLLYECAPMSFIVEQAGGKGSDGHQRVLDIQPTEIHQRVPLYIGSTEEVEKVEKYLA	soluble
MGSDKIHHHHHHMNSDIIVADFWKNNEEILTDFDKDSFCESWTENEMWSIEFKVAQTPKNAHCYSFLDYESSVYFRGQEFVVKQLSHDAVGKTLSKDIRAPHIYYTCQDGRQDDAITGSFTLEQCLTHIFKTDNRGFSWEIIDPSNILEKVQQENFGNNNYLTLIDQLLDDYGVVVIPDNRHLVFKPREIYGAKTENFIRYKYNTDEASFDIDTLSLKTKIKGYGKVDSNGNNYFSPITYTSPEVEKWGIRWQEPVSDERYTVAGNMQRRLKLELQDYPATTGSVILKNDYECEKGDYVLFIYEPLGIDYDVQIVAYKKYPFTIKAPEITLSNNKKSIVSIMAQLAKVLKGAK	not soluble
MSKRCASDRDDKDSEPVKKPRFSIANILDEVEDEEDVEVDVEDVDDVDLSSIPSKSPERSRGRPKIGLKMKEGNLPIECKLEGSELWAKFFDLGTEMIITKSGRRMFPTVKVSFTNVILDALYYIFLDVVPVDSKRYRYIYNKSAWLTAGKAEPVPKNRYYLHPDSPFTGDQLLKHVISFEKTKLTNNEVDKTGHLILNSMHKYQPRIHIVQRQKANPLDPNKVVMSEEKHCTYTFPETQFMAVTAYQNQLITKLKIEKNPFAKGFRDPTGRSPDEMERSPGDMMLSNFYHSSALQQAMFQQCLSKTLQLNPSIMMLYQNVFPTGNSLPAAPTVPGNPAEISIKSE	soluble
MRKIVLFGDSITAGYLDEAVSPVLVDLVKRDIAAMGLEEVAVINAGMPGDTTEDGLKRLNKEVLIEKPDEVVIFFGANDASLDRNITVATFRENLETMIHEIGSEKVILITPPYADSGRRPERPQTRIKELVKVAQEVGAAHNLPVIDLYKAMTVYPGTDEFLQADGLHFSQVGYELLGALIVREIKGRLKPKQA	soluble
MFEITRPPGVRAHVGVIGGSGLYDPGIVENPVEVKVSTPYGNPSDFIVVGDVAGVKVAFLPRHGRGHRIPPHAINYRANIWALKALGVKWVISVSAVGSLREDYRPGDFVVPDQFIDMTKNRRHYTFYDGPVTVHVSMADPFCEDLRQRLIDSGRRLGYTVHERGTYVCIEGPRFSTRAESRVWKDVFKADIIGMTLVPEINLACEAQLCYATLAMVTDYDVWADRPVTAEEVERVMISNVERARRMLYDVIPKLAGEPELERCSCCRALDTAAI	soluble
MCIAIPGKMTAIVDENTATIDMGGICRDVNMALMGGAEESMIGKHFLVHVGYAISEISEEESEETMRLLKIMAGLEEIDSFE	soluble
MSLGSGTSTQHHFAFQNAERAFKAAALIQRWYRRYVARLEMRRRCTWSIFQSIEYAGQQDQVKLHDFFSYLMDHFIPSSHNDRDFLTRIFTEDRFAQDSEMKKCSDYESIEVPDSYTGPRLSFPLLPDHATALVEAFRLKQQLHARYVLNLLYETKKHLVQLPNINRVSTCYSEEITVCGDLHGQLDDLIFIFYKNGLPSPERSYVFNGDFVDRGKDSVEILMILFAFMLVYPKEFHLNRGNHEDHMVNLRYGFTKEVMNKYKVHGKEILRTLQDVFCWLPLATLIDEKVLILHGGVSDITDLELLDKIERSKIVSTMRSGTQEEWRQVVDILWSDPMAQEGCKANTIRGGGCYFGPDVTQQLLQKYNMQFLIRSHECKPEGYEFCHNRKVLTIFSASNYYEVGSNRGAYVKLGPALTPHIVQYQANKVTHTLTMRQREGHHHHHH	not soluble
MSGMILDELSWRGLIAQSTDLDTLAAEAQRGPMTVYAGFDPTAPSLHAGHLVPLLTLRRFQRAGHRPIVLAGGATGMIGDPRDVGERSLNEADTVAEWTERIRGQLERFVDFDDSPMGAIVENNLEWTGSLSAIEFLRDIGKHFSVNVMLARDTIRRRLAGEGISYTEFSYLLLQANDYVELHRRHGCTLQIGGADQWGNIIAGVRLVRQKLGATVHALTVPLVTAADGTKFGKSTGGGSLWLDPQMTSPYAWYQYFVNTADADVIRYLRWFTFLSADELAELEQATAQRPQQRAAQRRLASELTVLVHGEAATAAVEHASRALFGRGELARLDEATLAAALRETTVAELKPGSPDGIVDLLVASGLSASKGAARRTIHEGGVSVNNIRVDNEEWVPQSSDFLHGRWLVLRRGKRSIAGVERIGLEHHHHHH	soluble
MDRMYEQNQMPHNNEAEQSVLGSIIIDPELINTTQEVLLPESFYRGAHQHIFRAMMHLNEDNKEIDVVTLMDQLSTEGTLNEAGGPQYLAELSTNVPTTRNVQYYTDIVSKHALKRRLIQTADSIANDGYNDELELDAILSDAERRILELSSSRESDGFKDIRDVLGQVYETAEELDQNSGQTPGIPTGYRDLDQMTAGFNRNDLIILAARPSVGKTAFALNIAQKVATHEDMYTVGIFSLEMGADQLATRMICSSGNVDSNRLRTGTMTEEDWSRFTIAVGKLSRTKIFIDDTPGIRINDLRSKCRRLKQEHGLDMIVIDYLQLIQGSGSRASDNRQQEVSEISRTLKALARELECPVIALSQLSRGVEQRQDKRPMMSDIRESGSIEQDADIVAFLYRDDYYNRGGDEDDDDDGGFEPQTNDENGEIEIIIAKQRNGPTGTVKLHFMKQYNKFTDIDYAHADMM	not soluble
MGSDKIHHHHHHMRFEEAGCHGEFIQADLTKLPFSEPKFDVIFSEGVLHHTDSTEKAIKYLTTLLIPGGHFLFYVYKTKAPIREFTDDYVRNQLINMDDSQAWNELRSLTLLGKILGDLNIEVEIPEPILLLGIPAGRINIQRLFYWYICKAFYNPEWTIDEMNHVNFDWYRPLNCHRHTPEEIMTWCNQAGLKIERMNVQEAGITVVAKKE	not soluble
